Assay results: US20250250357A1 (NANJING ZAIMING PHARMACEUTICAL, published 2025)
Where two headings read alike, the source gives them in different places.

T1: monkey MSLN on HEK293T-monkey MSLN recombinant cells (monkey)
T1 construct: Full-length precursor as transfected; processing on the cell is not described; also called HEK293-monkey MSLN
T1 chain: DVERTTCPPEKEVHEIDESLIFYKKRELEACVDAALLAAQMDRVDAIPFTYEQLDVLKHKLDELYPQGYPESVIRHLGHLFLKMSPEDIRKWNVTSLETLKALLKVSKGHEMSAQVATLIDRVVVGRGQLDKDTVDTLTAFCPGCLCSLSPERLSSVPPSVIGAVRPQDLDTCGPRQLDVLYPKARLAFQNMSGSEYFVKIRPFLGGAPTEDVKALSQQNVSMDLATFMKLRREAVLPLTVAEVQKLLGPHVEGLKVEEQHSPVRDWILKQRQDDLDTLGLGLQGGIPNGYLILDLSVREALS


Tests used:
[1] = target: T2, human MSLN on OVCAR3 tumor cells (human, UniProt Q13421 296-598); assay: FACS, OVCAR3 cells
T2 construct: whole, on cells; also called human MSLN protein
T2 sequence (Q13421 other isoform, or with tags, fused parts or gaps): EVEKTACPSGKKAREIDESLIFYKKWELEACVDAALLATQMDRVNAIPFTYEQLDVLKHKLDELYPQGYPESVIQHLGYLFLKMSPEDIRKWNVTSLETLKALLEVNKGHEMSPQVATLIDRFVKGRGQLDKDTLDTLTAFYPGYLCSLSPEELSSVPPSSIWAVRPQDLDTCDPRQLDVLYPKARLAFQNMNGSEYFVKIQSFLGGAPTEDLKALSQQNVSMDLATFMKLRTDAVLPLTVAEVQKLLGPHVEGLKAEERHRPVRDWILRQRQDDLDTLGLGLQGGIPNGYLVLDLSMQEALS

[2] = target: T3, human MSLN-R3 on HEK293T-hMSLN-R3 recombinant cells (human, UniProt Q13421 487-606); assay: FACS, HEK293T-hMSLN-R3 cells
T3 construct: the C-terminal limit is uncertain; also called human MSLN-R3 membrane protein
T3 sequence (Q13421 495-614): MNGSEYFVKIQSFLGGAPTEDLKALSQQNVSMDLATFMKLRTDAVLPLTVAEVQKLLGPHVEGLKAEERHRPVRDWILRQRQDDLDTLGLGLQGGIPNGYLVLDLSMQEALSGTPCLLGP

[3] = target: T1, monkey MSLN on HEK293T-monkey MSLN …; assay: FACS, HEK293T-monkey MSLN cells
[4] = target: T4, human MSLN-hFc recombinant protein (human, UniProt Q13421 296-580); assay: SPR (Biacore 8K), MSLN-hFc captured, antibody injected
T4 construct: Captured by an anti-human IgG antibody on the chip; also called human MSLN protein; Acro MSN-H5253
T4 sequence (Q13421 other isoform, or with tags, fused parts or gaps): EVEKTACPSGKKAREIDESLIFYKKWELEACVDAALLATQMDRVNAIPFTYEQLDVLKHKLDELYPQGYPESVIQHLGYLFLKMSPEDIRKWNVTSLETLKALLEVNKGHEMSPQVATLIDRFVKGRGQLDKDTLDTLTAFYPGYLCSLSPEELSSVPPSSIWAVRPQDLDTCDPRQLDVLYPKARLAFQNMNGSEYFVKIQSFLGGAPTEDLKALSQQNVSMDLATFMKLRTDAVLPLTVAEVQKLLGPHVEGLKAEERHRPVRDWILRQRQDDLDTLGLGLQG

[5] = target: T2, human MSLN on OVCAR3 tumor cells; assay: FACS, OVCAR3 cells; remark: listed apart in the source
[6] = target: T1, monkey MSLN on HEK293T-monkey MSLN …; assay: FACS, HEK293T-monkey MSLN cells
[7] = target: T3, human MSLN-R3 on HEK293T-hMSLN-R3 …; assay: FACS, HEK293T-hMSLN-R3 cells; remark: listed apart in the source

| Binder | EC50 [1] [nM] | Maximum_MFI [1] [MFI] | EC50 [2] [nM] | Maximum_MFI [2] [MFI] | EC50 [3] [nM] | Maximum_MFI [3] [MFI] | Kd [4] [nM] | koff [4] [s⁻¹] | kon [4] [M⁻¹ s⁻¹] | EC50 [5] [nM] | Maximum_MFI [5] [MFI] | EC50 [6] [nM] | Maximum_MFI [6] [MFI] | EC50 [7] [nM] | Maximum_MFI [7] [MFI] |
| --- | --- | --- | --- | --- | --- | --- | --- | --- | --- | --- | --- | --- | --- | --- | --- |
| F2.39.3-H5 (scFv, not shown: small tags and cut ends, also called S009-F2.39.3 humanized antibody VH2 + VL1) scFv: EVQLVQSGAEVKKPGASVKVSCKASGYTFTNYWMHWVRQAPGQGLEWMGNINPSSGDSYYNERFMSRVTMTVDKSTSTAYMELSSLRSEDTAVYYCARSGGLWLAFWGQGTLVTVSSGGGGSGGGGSGGGGSDIVMTQSPDSLAVSLGERATINCKSSQTLLNSVSQNNYLAWYQQKPGQSPKLLIYFASTRESGVPDRFSGSGSGTDFTLTISSLQAEDVAVYYCQQHYRTPYTFGGGTKVEIK | 6.37 | 3140 | 4.65 | 5650 | 5.64 | 22500 |  |  |  |  |  |  |  |  |  |
| F2.39.3-H1 (scFv, not shown: small tags and cut ends, also called S009-F2.39.3 humanized antibody VH1 + VL1) scFv: EVQLVQSGAEVKKPGASVKVSCKASGYTFTNYWMHWVRQAPGQGLEWMGNINPSSGDSYYNERFMSRVTMTVDKSTSTVYMELSSLRSEDTAVYYCARSGGLWLAFWGQGTLVTVSSGGGGSGGGGSGGGGSDIVMTQSPDSLAVSLGERATINCKSSQTLLNSVSQNNYLAWYQQKPGQSPKLLIYFASTRESGVPDRFSGSGSGTDFTLTISSLQAEDVAVYYCQQHYRTPYTFGGGTKVEIK | 11 | 4000 | 4.91 | 5820 | 5.31 | 24400 |  |  |  |  |  |  |  |  |  |
| F2.39.3-H6 (scFv, not shown: small tags and cut ends, also called S009-F2.39.3 humanized antibody VH2 + VL2) scFv: EVQLVQSGAEVKKPGASVKVSCKASGYTFTNYWMHWVRQAPGQGLEWMGNINPSSGDSYYNERFMSRVTMTVDKSTSTAYMELSSLRSEDTAVYYCARSGGLWLAFWGQGTLVTVSSGGGGSGGGGSGGGGSDIVMTQSPDSLAVSLGERATINCKSSQTLLNSVSQNNYLAWYQQKPGQSPTLLIYFASTRESGVPDRFSGSGSGTDFTLTISSLQAEDVAVYYCQQHYRTPYTFGGGTKVEIK | 40.3 | 4160 | 6.26 | 5780 | 8.9 | 24100 |  |  |  |  |  |  |  |  |  |
| F2.39.3-H8 (scFv, not shown: small tags and cut ends, also called S009-F2.39.3 humanized antibody VH2 + VL4) scFv: EVQLVQSGAEVKKPGASVKVSCKASGYTFTNYWMHWVRQAPGQGLEWMGNINPSSGDSYYNERFMSRVTMTVDKSTSTAYMELSSLRSEDTAVYYCARSGGLWLAFWGQGTLVTVSSGGGGSGGGGSGGGGSDIVMTQTPLSLSVTPGQPASISCKSSQTLLNSVSQNNYLAWYQQKPGQSPTLLVYFASTRESGVPDRFSGSGSGTDFTLKISRVEAEDVGVYYCQQHYRTPYTFGGGTKVEIK | 18.6 | 4120 | 6.91 | 5600 | 12.8 | 26000 |  |  |  |  |  |  |  |  |  |
| F2.23.12-H1 (scFv, not shown: small tags and cut ends, also called S009-F2.23.12 humanized antibody VH1 + VL1) scFv: EVQLVQSGAEVKKPGASVKVSCKASGYTFTNYWMHWVRQAPGQGLEWMGNINPSNGGPYYNERFRSRVTMTVDKSTSTVYMELSSLRSEDTAVYYCARPYYGSSYGYFDYWGQGTTVTVSSGGGGSGGGGSGGGGSDIQMTQSPSSLSASVGDRVTITCKASQDINKYIAWYQQKPGKAPKLLIHYTSELQPGVPSRFSGSGSGTDFTFTISSLQPEDIATYYCLQYANPLRTFGGGTKVEIK | 9.56 | 3250 | 4.7 | 4720 | 6.72 | 16000 |  |  |  |  |  |  |  |  |  |
| F2.23.12-H4 (scFv, not shown: small tags and cut ends, also called S009-F2.23.12 humanized antibody VH1 + VL4) scFv: EVQLVQSGAEVKKPGASVKVSCKASGYTFTNYWMHWVRQAPGQGLEWMGNINPSNGGPYYNERFRSRVTMTVDKSTSTVYMELSSLRSEDTAVYYCARPYYGSSYGYFDYWGQGTTVTVSSGGGGSGGGGSGGGGSDIQMTQSPSSLSASVGDRVTITCKASQDINKYIAWYQHKPGKAPKLLIHYTSELQPGVPSRFSGSGSGRDYTFTISSLQPEDIATYYCLQYANPLRTFGGGTKVEIK | 9.9 | 3630 | 2.67 | 4760 | 2.5 | 14500 |  |  |  |  |  |  |  |  |  |
| F2.23.12-H8 (scFv, not shown: small tags and cut ends, also called S009-F2.23.12 humanized antibody VH2 + VL4) scFv: EVQLVQSGAEVKKPGASVKVSCKASGYTFTNYWMHWVRQAPGQGLEWMGNINPSNGGPYYNERFRSRVTMTVDKSTSTAYMELSSLRSEDTAVYYCARPYYGSSYGYFDYWGQGTTVTVSSGGGGSGGGGSGGGGSDIQMTQSPSSLSASVGDRVTITCKASQDINKYIAWYQHKPGKAPKLLIHYTSELQPGVPSRFSGSGSGRDYTFTISSLQPEDIATYYCLQYANPLRTFGGGTKVEIK | 14.5 | 3040 | 5.57 | 4590 | 5.22 | 14700 |  |  |  |  |  |  |  |  |  |
| F2.23.12-H16 (scFv, not shown: small tags and cut ends, also called S009-F2.23.12 humanized antibody VH4 + VL4) scFv: EVQLVQSGAEVKKPGASVKVSCKASGYTFTNYWMHWVRQAPGQGLEWMGNINPSQGGPYYNERFRSRVTMTVDKSTSTAYMELSSLRSEDTAVYYCARPYYGSSYGYFDYWGQGTTVTVSSGGGGSGGGGSGGGGSDIQMTQSPSSLSASVGDRVTITCKASQDINKYIAWYQHKPGKAPKLLIHYTSELQPGVPSRFSGSGSGRDYTFTISSLQPEDIATYYCLQYANPLRTFGGGTKVEIK | 80.4 | 2920 | 9.39 | 4010 | 12.3 | 16100 |  |  |  |  |  |  |  |  |  |
| F7.33.24-H2 (scFv, not shown: small tags and cut ends, also called S009-F7.33.24 humanized antibody VH1 + VL2) scFv: EVQLVQSGAEVKKPGASVKVSCKASGYTFTSYWMHWVRQAPGQRLEWMGNVNPSNGGSNYNEKFKNRVTITVDKSASTAYMELSSLRSEDTAVYYCAPHYIGSRPGFAYWGQGTLVTVSSGGGGSGGGGSGGGGSDIVMTQTPLSLSVTPGQPASISCKASQNVGTNIAWYLQKPGQSPQALIYSASYRYSGVPDRFSGSGSGTDFTLKISRVEAEDVGVYYCQQYNSYPLTFGGGTKVEIK |  |  |  |  |  |  | 1.83 | 0.000466 | 254000 | 2.07 | 2190 | 5.11 | 8170 | 1.21 | 1520 |
| F7.33.24-H5 (scFv, not shown: small tags and cut ends, also called S009-F7.33.24 humanized antibody VH1a + VL2) scFv: EVQLVQSGAEVKKPGASVKVSCKASGYTFTSYWMHWVRQAPGQRLEWMGNVNPSSGGSNYNEKFKNRVTITVDKSASTAYMELSSLRSEDTAVYYCAPHYIGSRPGFAYWGQGTLVTVSSGGGGSGGGGSGGGGSDIVMTQTPLSLSVTPGQPASISCKASQNVGTNIAWYLQKPGQSPQALIYSASYRYSGVPDRFSGSGSGTDFTLKISRVEAEDVGVYYCQQYNSYPLTFGGGTKVEIK |  |  |  |  |  |  | 1.06 | 0.000435 | 409000 | 2.78 | 2420 | 4.98 | 8430 | 1.35 | 1470 |
| F7.33.24-H8 (scFv, not shown: small tags and cut ends, also called S009-F7.33.24 humanized antibody VH2 + VL2) scFv: EVQLVQSGAEVKKPGASVKVSCKASGYTFTSYWMHWVRQAPGQGLEWMGNVNPSNGGSNYNEKFKNRVTITVDKSASTAYMELSSLRSEDTAVYYCAPHYIGSRPGFAYWGQGTLVTVSSGGGGSGGGGSGGGGSDIVMTQTPLSLSVTPGQPASISCKASQNVGTNIAWYLQKPGQSPQALIYSASYRYSGVPDRFSGSGSGTDFTLKISRVEAEDVGVYYCQQYNSYPLTFGGGTKVEIK |  |  |  |  |  |  | 1.32 | 0.000529 | 402000 | 1.8 | 2250 | 4.6 | 8000 | 1.52 | 1400 |
| F7.33.24-H9 (scFv, not shown: small tags and cut ends, also called S009-F7.33.24 humanized antibody VH2 + VL3) scFv: EVQLVQSGAEVKKPGASVKVSCKASGYTFTSYWMHWVRQAPGQGLEWMGNVNPSNGGSNYNEKFKNRVTITVDKSASTAYMELSSLRSEDTAVYYCAPHYIGSRPGFAYWGQGTLVTVSSGGGGSGGGGSGGGGSDIVMTQTPLSLSVTPGQPASISCKASQNVGTNIAWYQQKPGQSPQALIYSASYRYSGVPDRFSGSGSGTDFTLKISRVEAEDVGVYYCQQYNSYPLTFGGGTKVEIK |  |  |  |  |  |  |  |  |  | 2.6 | 2190 | 4.08 | 8080 | 1.29 | 1470 |
| F7.33.24-H11 (scFv, not shown: small tags and cut ends, also called S009-F7.33.24 humanized antibody VH2a + VL2) scFv: EVQLVQSGAEVKKPGASVKVSCKASGYTFTSYWMHWVRQAPGQGLEWMGNVNPSNAGSNYNEKFKNRVTITVDKSASTAYMELSSLRSEDTAVYYCAPHYIGSRPGFAYWGQGTLVTVSSGGGGSGGGGSGGGGSDIVMTQTPLSLSVTPGQPASISCKASQNVGTNIAWYLQKPGQSPQALIYSASYRYSGVPDRFSGSGSGTDFTLKISRVEAEDVGVYYCQQYNSYPLTFGGGTKVEIK |  |  |  |  |  |  |  |  |  | 2.25 | 2130 | 1.46 | 8580 | 0.42 | 1590 |
| F7.33.24-H12 (scFv, not shown: small tags and cut ends, also called S009-F7.33.24 humanized antibody VH2a + VL3) scFv: EVQLVQSGAEVKKPGASVKVSCKASGYTFTSYWMHWVRQAPGQGLEWMGNVNPSNAGSNYNEKFKNRVTITVDKSASTAYMELSSLRSEDTAVYYCAPHYIGSRPGFAYWGQGTLVTVSSGGGGSGGGGSGGGGSDIVMTQTPLSLSVTPGQPASISCKASQNVGTNIAWYQQKPGQSPQALIYSASYRYSGVPDRFSGSGSGTDFTLKISRVEAEDVGVYYCQQYNSYPLTFGGGTKVEIK |  |  |  |  |  |  |  |  |  | 0.92 | 2200 | 5.07 | 7940 | 1.27 | 1330 |
